Source: US8377889B2, “Adiponectin receptor fragments and methods of use” (Siemens Healthcare Diagnostics Inc., priority 2007, dated 2013)
Entries after “also recorded” stand apart in the source; their conditions may differ. Read-outs that look alike come from different tables or passages of the source. Residues, ends and D or L forms follow the SMILES beside them.

Key:
[1] = molecular target: T1, insulin degradation enzyme (IDE) (Homo sapiens, UniProt P14735); test: Inhibition of IDE activity; type: biochemical; conditions: Example 9, Table 3
[2] = molecular target: ADAM-17 (Homo sapiens, UniProt P78536); test: Inhibition of ADAM-17 (TACE) activity; type: biochemical; conditions: for ADAM 17 inhibition: Example 9, Table 3
Procedure: (§1) The cleavage enzymes for ECM32 are also potential therapeutic targets. ECM32 sequence at the cleavage site was matched to Elastase (X-VV) and ADAM17 (X-VVAA) as potential enzymes (proteases) able to cleave or bind ECM32. The peptides of SEQ ID NO:1 (ECM32) and SEQ ID NO:2 (ECM30) were tested at levels of 0 mg/L, 12.5 mg/L, 25 mg/L, and 50 mg/L for their effect on cleavage enzymes.
The effect of ECM32 (SEQ ID NO:1), ECM30 (SEQ ID NO:2), ECM25 (SEQ ID NO:5), ECM10 (SEQ ID NO:6), ECM12 (SEQ ID NO:7), and ECM9 (SEQ ID NO:8) on ADAM-17 activity was evaluated.

[3] = tested on: diabetic rats; test: Plasma insulin testing in diabetic rats; type: in vivo, rat; conditions: 2 mg/mL and 10 mg/mL in saline intravenously
Procedure: The peptide of SEQ ID NO:2 (ECM30) was tested by treating diabetic rat groups of 8 animals at 2 mg/mL and 10 mg/mL in saline intravenously and compared to a control group (bovine serum albumin in saline). All three groups were fasted on Day 0. Fasted plasma glucose and insulin were be measured on Day 1 at 0, 30, 60, 90, and 120 minutes post glucose dose. Plots of the data are shown in FIG. 3 and FIG. 4, for the insulin level and % of pre-dose glucose in ng/ml, respectively, as a function of time.

[4] = tested on: normal and diabetic rats; test: Effect on plasma glucose level in normal and diabetic rats; type: in vivo, rat; conditions: injected at 2 mg/kg
Procedure: The effect of ECM32 (SEQ ID NO:1) and ECM30 (SEQ ID NO:2) on the plasma glucose levels in normal and diabetic rats was evaluated. The peptides were injected at 2 mg/kg along with a control group. […] This could be due to ADAM-17 cleavage of ECM30 into IDE inhibitory forms in vivo.

[5] = tested on: normal rats; test: Plasma insulin testing in normal rats; type: in vivo, rat
Procedure: The peptides of SEQ ID NO:1 (ECM32) and SEQ ID NO:2 (ECM30) were tested by treating normal rat groups of 6 to 8 animals at 2 mg/mL in saline intravenously and compared to an untreated control group (0.9% saline solution only). All three groups were fasted on Day 0. Fasted plasma glucose and insulin were measured on Day 1 at 0, 30, 60, 90, and 120 minutes post glucose dose (5 mL/kg). Plasma levels of ECM30 and ECM32 were also measured. Plots of the data are shown in FIG. 1 and FIG. 2, for the insulin level in ng/mL and glucose level in mg/dL, respectively, as a function of time.

[6] = molecular target: T1, insulin degradation enzyme (IDE); test: Inhibition of IDE activity; type: biochemical; conditions: Example 8; 0-50 μg/ml for ECM32, 0-100 μg/ml for ECM30
Procedure: The effect of ECM32 (SEQ ID NO:1) and ECM30 (SEQ ID NO:2) on IDE activity over time was evaluated at four different dose levels (0, 12.5, 25, and 50 μg/ml for ECM32 and 0, 25, 50, and 100 μg/ml for ECM30). The results are shown in FIG. 9 for ECM32 (SEQ ID NO:1) and FIG. 10 for ECM30 (SEQ ID NO:2). […]

[7] = tested on: Elastase; test: Elastase inhibition; type: biochemical; conditions: Example 4; 0, 12.5, 25, 50 mg/L
Procedure: as §1

[8] = Plasma ECM32 (AdipoR1) level in normal and diabetic rats; type: in vivo; conditions: rat, 2 mg/kg, 120 min
Procedure: The effect of ECM32 (SEQ ID NO:1) on the plasma adiponectin and ECM32 levels in normal and diabetic rats was evaluated. The peptide was injected at 2 mg/kg along with a control group.

ADAM-17, sequence (P78536 215-824, species assumed): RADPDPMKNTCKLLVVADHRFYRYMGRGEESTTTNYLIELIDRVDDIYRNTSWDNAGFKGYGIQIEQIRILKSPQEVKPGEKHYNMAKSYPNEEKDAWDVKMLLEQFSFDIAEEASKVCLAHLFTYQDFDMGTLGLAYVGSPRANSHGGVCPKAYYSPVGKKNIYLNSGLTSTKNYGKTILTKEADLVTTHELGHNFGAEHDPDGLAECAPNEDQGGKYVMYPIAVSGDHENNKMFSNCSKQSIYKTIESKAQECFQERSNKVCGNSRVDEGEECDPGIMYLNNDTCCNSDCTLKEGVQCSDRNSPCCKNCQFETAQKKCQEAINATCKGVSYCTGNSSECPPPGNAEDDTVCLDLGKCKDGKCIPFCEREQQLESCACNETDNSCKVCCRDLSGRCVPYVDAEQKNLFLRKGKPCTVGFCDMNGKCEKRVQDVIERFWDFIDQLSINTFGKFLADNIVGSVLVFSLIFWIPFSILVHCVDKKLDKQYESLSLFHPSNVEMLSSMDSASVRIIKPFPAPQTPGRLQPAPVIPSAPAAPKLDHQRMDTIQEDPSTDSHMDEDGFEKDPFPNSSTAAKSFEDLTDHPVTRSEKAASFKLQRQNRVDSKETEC

With “VVAAAFVHFY [ECM10, ADIPOR1 fragment, 10 amino acids]” as the compound, how does the IDE inhibition [1] read?
The IDE inhibition was “inhibit IDE activity”.

What about the IDE inhibition ([1]; listed as ECM 10) of the same compound?
The IDE inhibition was “positive”.

What about the “ADAM 17 inhibition” value [2] of the same compound?
Its value is “no significant effect on ADAM-17 activity”.

And the “ADAM 17 inhibition” value ([2]; listed as ECM 10)?
Its value is “negative”.

Which results are given for “HVLVVAAAFVHFYGVSNLQEFRYGLEGGCT (listed as Homo Sapiens) [ECM30, ADIPOR1 fragment, 30 amino acids, uncleaved form]”?
IDE inhibition [1]: no significant effect on IDE; IDE inhibition ([1]; listed as ECM 30): negative; inhibitory effect on ADAM-17 (% TACE control activity) ([2]; Example 4, 0, 12.5, 25, 50 mg/L): did not significantly inhibit; ADAM 17 inhibition [2]: no significant effect on ADAM-17 activity; ADAM 17 inhibition ([2]; listed as ECM 30): negative; plasma insulin [3]: did not increase insulin; plasma glucose levels [4]: lowered glucose levels, but at longer time points; plasma insulin compared to the control group ([5]; 2 mg/mL in saline intravenously, 0-120 min post glucose dose): marked elevation in the plasma insulin; insulin peak relative to control ([5]; 30 minute time point): twice that observed for the control; IDE activity over time [6]: no significant effect on IDE over time; elastase inhibition [7]: Neither ECM30 nor ECM32 showed elastase inhibition

With “HFYGVSNLQEFRYGLEGGCTDDTLL [ECM25, ADIPOR1 C-terminal fragment, 25 amino acids]” as the compound, how does the IDE inhibition [1] read?
Its IDE inhibition is “inhibit IDE activity”.

What about the IDE inhibition ([1]; listed as ECM 25) of the same compound?
Its IDE inhibition is “positive”.

What about the “ADAM 17 inhibition” value [2] of the same compound?
The value was “no significant effect on ADAM-17 activity”.

And the “ADAM 17 inhibition” value ([2]; listed as ECM 25)?
Its value is “negative”.

With “HFYGVSNLQEFR [ECM12, ADIPOR1 fragment, 12 amino acids]” as the compound, how does the IDE inhibition [1] read?
The IDE inhibition was “inhibit IDE activity; also recorded: positive”.

What about the “ADAM 17 inhibition” value [2] of the same compound?
The value was “no significant effect on ADAM-17 activity; also recorded: negative”.

With `CC(C)C[C@H](NC(=O)[C@H](CC(C)C)NC(=O)[C@@H](NC(=O)[C@H](CC(=O)O)NC(=O)[C@H](CC(=O)O)NC(=O)[C@@H](NC(=O)[C@H](CS)NC(=O)CNC(=O)CNC(=O)[C@H](CCC(=O)O)NC(=O)[C@H](CC(C)C)NC(=O)CNC(=O)[C@H](Cc1ccc(O)cc1)NC(=O)[C@H](CCCNC(=N)N)NC(=O)[C@H](Cc1ccccc1)NC(=O)[C@H](CCC(=O)O)NC(=O)[C@H](CCC(N)=O)NC(=O)[C@H](CC(C)C)NC(=O)[C@H](CC(N)=O)NC(=O)[C@H](CO)NC(=O)[C@@H](NC(=O)CNC(=O)[C@H](Cc1ccc(O)cc1)NC(=O)[C@H](Cc1ccccc1)NC(=O)[C@H](Cc1c[nH]cn1)NC(=O)[C@@H](NC(=O)[C@H](Cc1ccccc1)NC(=O)[C@H](C)NC(=O)[C@H](C)NC(=O)[C@H](C)NC(=O)[C@@H](NC(=O)[C@@H](N)C(C)C)C(C)C)C(C)C)C(C)C)[C@@H](C)O)[C@@H](C)O)C(=O)O` [ECM32] (H-VVAAAFVHFYGVSNLQEFRYGLEGGCTDDTLL-OH; N-terminus and C-terminus assumed) as the compound, how does the level at 2 h ([8]; Diabetic Rats (ZDF), read-out: ECM32 (AdipoR1) in Plasma, Mean ± SD) read?
The level at 2 h was 95.1 ± 36.1 ng/mL.

What about the level at 2 h ([8]; Normal Rats (SD)) of the same compound?
The level at 2 h was 113 ± 18.5 ng/mL.

Which IDE inhibition [1] does the source give for “SGCTDDTLL [ECM9, ADIPOR1 fragment, 9 amino acids]” here?
Its IDE inhibition is “inhibit IDE activity”.

And the IDE inhibition ([1]; listed as ECM 9)?
Its IDE inhibition is “positive”.

What about the “ADAM 17 inhibition” value [2] of the same compound?
The value was “no significant effect on ADAM-17 activity”.

And the “ADAM 17 inhibition” value ([2]; listed as ECM 9)?
The value was “negative”.
